Experimental data as given in US20240084330A1 (BROAD INSTITUTE, published 2024).

B1: MmPNMA3 (mouse PNMA3 produced in E. coli, tags removed) (other, UniProt Q8JZW8 1-466, looked up)
chain: MPLNLLQDWCRGEHLNTQRSMLILGIPEDCSEDEFEETLHEALKHLGRYRIIGRMFRREENAQAFLVELARDFDYALVPREIEGKGGPWEVVVKPPHSDDEFLNRLNHFLEEERRTVSDMNRVLGTHSNHSPTKTTISADFWVWAQTLGAVMQPLLEQMLYRELRVFSGNTISIPGLLAFDSWLEHTTEMLQMWQVPEVEKRRRLMECLRGPALQVVNVLRANNAAITVKECLEALRQVFGSVDNRKIAQLKFCKAYQEPGEKVSSFVVRLETLLQKALEKNAISRKNVNQTRLKRILGGAILSAKLREKLKMLKQRRRPPGFLALVKLFREEEEEWEATRGSERSCYEGLELGPSPSNIGSEERELFVPAFGSVLEERPYQGSRRRRHRRRGQHRKGGVPRDDSQGTRKQNYDTFCYSCGEDGHIRVHCFNPSNRTLVKQKRQAAMEKGNRSWAWEKSHPKPKTK
notes: Cloned from mouse cDNA into a TwinStrep-SUMO backbone; tags cleaved with SUMO protease before size exclusion
B2: MmMOAP1 (mouse MOAP1 produced in E. coli, tags removed) (other, UniProt Q9ERH6 1-352, looked up)
chain: MTLRLLEDWCRGMDMNPRKALLVAGIPPTCGVADIEEALQAGLAPLGEHRLLGRMFRRDENKNVALIGLTVETGSALVPKEIPAKGGVWRVIFKPPDTDSDFLCRLNEFLKGEGMTMGELTRVLGNRNDPLGLDPGIMIPEIRAPMLAQALNEALKPTLQYLRYKKLSVFSGRDPPGPGEEEFESWMFHTSQVMKTWQVSDVEKRRRLIESLRGPAFEIIRVLKINNPFITVAECLKTLETIFGIIDNPRALQVKYLTTYQKTDEKLSAYVLRLEPLLQKLVQKGAIEKEVVNQARLDQVIAGAVHKSVRRELGLPEGSPAPGLLQLLTLIKDKEAEEEEVLLQAELEGYCT
notes: Cloned from mouse cDNA into a TwinStrep-SUMO backbone; tags cleaved with SUMO protease before size exclusion; also called modulator of apoptosis 1; Pnma4
B3: MmPNMA5 (mouse PNMA5 produced in E. coli, tags removed) (other, UniProt Q5DTT8 1-618, looked up)
chain: MAVALLDDWCKGMDLDPKKAVLIVGIPVQYTEAAINDALKEGLPPLCAYKVIGRMFRREDEAKAVLIELPEVVDYTMMPTHIPAEGGAWEVVVKPRSPDDEFMNKLIYFLRDEGRRIVDVAKALGFSTVPTGKIELKNLDQDKPKGLKSLCNNSTCYKKLKVFSGSPFPGPGEESFETWLEEVTELMQLWQVSEREKKQCLLESLRGSALSIMQALWTSNDSLTVEQCLKALKHIFGNKEDSKVLQFRFLQSSQKPAEKVSDYLLRLEPLLQKAVQQSPLSAHSADSIRLKHVLSQVSMTTGLRGKLSLLDQQGCPPTFLELMKLTRDEEEWESTVVVEEQEQVRRDSSACEAANEVVTQAEDSREVSTQTTGEEMTSVKRRRLLWRHSAGEEGQRKESGFWAESEPDEQKPYVRAQESGNERGAWAVSHPNPKEIEAQDSQEFLPVAGNRDTLTKSWGSPDKGTGDMSVAEGQQGQGKAPNFLLARNDPNKQEQIPHSSVTTKWQDRGECQRLKWGASMITRPQGNPDRSWDTSGSQDGEDGCSELRMPTGTEAAQGVEEPATGLSWAEDTSAWEQARLGRETVPRRGGRRIQPVFRIIYTALGEPHEGSTLESFRE
notes: as for B1

Molecular target: the molecule itself
Assay: self-assembly of E. coli-produced protein; size exclusion and electron microscopy

Row | Protein | binding result
1 | B1 | binds
2 | B2 | binds
3 | B3 | binds
